Test results as given in the nanobody polyreactivity screen of Harvey et al. (2022).

Test: yeast display, Sf9 membrane polyspecificity reagent, FACS + sequencing; frameworks hold sequencing errors
Summary of the method: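 Nanobodies came from a synthetic yeast display library in Saccharomyces cerevisiae BJ5465, induced with galactose for 36–48 hours and stained for 1 hour at 4 °C with 10% biotinylated, detergent-solubilized Sf9 membrane reagent. Cells were enriched on streptavidin microbeads and then FACS-sorted, with low and high (top ~1%) gates set on anti-HA fluorescence for expression and streptavidin fluorescence for reagent binding. Each polyreactivity label reflects the gate a clone came from. Genes were amplified by colony PCR, sequenced by MiSeq 2 × 250 and filtered by CDR length.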

Sequence	polyreactivity (PSR sort gate)
QDQLVESGGGLVQAGGSLRLSCAASGFTFGDYAMGWYRQEPGKERELVAAISWSGSNTYYADSVKGRFTISRDNAKNTVYLQMNSLKPEDTAVYYCNADYDPEDMDYWGQGTQVTVSS	low polyreactivity
QDQLVESGGGLVQAGGSLRLSCAASGFTFSVNAMGWYRQAPGKERELVAAITRGRSTSYADSVKGRFTISRDNAKNTVYLQKNSLKPEDTAVYYCAASYSGGTWSGYYYWGQGTQVTVSS	high polyreactivity
QDQLVESGGGLVQAGGSLRLSCAASGFTFSWNAMGWYRQSPGKERQLVAAISWSGGSTYYADSVKGRFTISRDNAKNTVYLQMNSLKPEDTAVYYCNAGSTRAASRVRYDYWGQGTQVTVSS	high polyreactivity
QDQLVESGGGLVQAGGSLRLSCAASGFTFTRYAMGWYRQAPGKERELVAAITQRGGSTYYADSVKGRFTISRDNAKNTVYLQMNSLKPEDTAVYYCAAVQTRRWYGYLYNYWGQGTQVTVSS	high polyreactivity
QDQLVESGGGLVQAGGSLRLSCAASGFTFTRYAMGWYRQAPGKERELVAAITRRSGRTYYADSVKGRFTISRDNAKNTVYLQMNSLKPEDTAVYYCNAVRTTPSGSLPLAYDYWGQGTQVTVSS	high polyreactivity
QDQLVESGGGLVQAGGSLRLSCAASGFTFVINDMGWYRQAPGKERELVADITSGGDTYYADSVKGRFTISRDNAKNTVYLQMNSLKPEDTAVYYCNTDTYFPLYDYWGQGTQVTVSS	low polyreactivity
QDQLVESGGGLVQAGGSLRLSCAASGIIFGYYAMGWDRQAPGKERELVAAISSGGTTSYADSVKGPFTISRDNEKNTVSLQMNSLKPEYTAVYYCAARDGYDGFYYWGQGTQVTVSS	low polyreactivity
QDQLVESGGGLVQAGGSLRLSCAASGIIIWRYAMGRYRQAPRKERELVAGITSRGGSTYYADSVKGRFTISRDNAKNTVYLQMNSLKPEDTAVYYCNADWYGLLWWGVDYWGQGTQVTVSS	high polyreactivity
QDQLVESGGGLVQAGGSLRLSCAASGITFDYYVMGWYRKAPGKEMELVAAISWSGGTTYYADSVKGRFTISRDNAKNTVSLQMNSLKPEDTAVYYCNAEHTGSFYGGYPWEMEYWGQGTQVTVSS	low polyreactivity
QDQLVESGGGLVQAGGSLRLSCAASGITFRWYAMGWYRQAPGKERELVAAITSVDSTDYADSVKGRFTISRDNAKNTVYLQMNSLKPEDTAVYYCAARIGTGVLPGRGANSHMDYWGQGTQVTVSS	low polyreactivity
QDQLVESGGGLVQAGGSLRLSCAASGITFRYYAKGWYRPSPGKERELLAAISTSGGNTYYADSVKGRLTISRDNAKNTVYLQMKSLKPEDTAVYYCDVDGEYWYEYDGDYWGQGTQVNVSS	low polyreactivity
QDQLVESGGGLVQAGGSLRLSCAASGITFYGYAMGWYRQAPGKERELVAAISESGGSTYYADSVKGRFTISRDNAKNTVYLQMNSLKPEDTAVYYCAAQGYSVYCYSNYWGQGTQVTVSS	low polyreactivity
QDQLVESGGGLVQAGGSLRLSCAASGITFYRNAMGWYRQAPGKERELVAAITSGTRTNYADSVKGRFTISRDNAKNTVYLQMNSLKPEDTAVYYCAKGGRSSSPLYRFEYWGQGTQVTVSS	high polyreactivity
QDQLVESGGGLVQAGGSLRLSCAASGLIFPYNAMGWYRQAPGKERELVAAIDTRGSSTYYADSVKGRFTISRDNAKNTVYLQMNSLKPEDTAVYYCIPRSGRSPTGFRYWGQGTEVTVSS	high polyreactivity
QDQLVESGGGLVQAGGSLRLSCAASGLIFVSYAMGWYRQAPGKERELVASITDSDSSTYYADSVKGRFTISRDNAKNTVYLQMNSLKPEDTAVYYCATGGRTEIWYPTLDYWGQGTQVTVSS	low polyreactivity
QDQLVESGGGLVQAGGSLRLSCAASGLIFYGNAMGWYRQAPGQERELVADISGSSVRTYYADSVKGRFTISRDNAKNTVCLQMNSLKPEDTAVYYCAATYGYLYTGLSRYDYWGQGTQVTVSS	low polyreactivity
QDQLVESGGGLVQAGGSLRLSCAASGLIYSYYALGWSRQATGKERELVASISRSGGSTYYADSVKGRFTISRDNAKNTVYLQMNILKPEDPAVYYCDAPGYYRTSRMDYWGQGTQVTVSS	high polyreactivity
QDQLVESGGGLVQAGGSLRLSCAASGLTFEKYAMGWYRQAPGKERELVAAISQDGGSTYYADSVKGRFTISRDNAKNTVYLQMNSLKPEDTAVYYCAAEDPDSWLPWDLFDYWGQGTQVTVSS	low polyreactivity
QDQLVESGGGLVQAGGSLRLSCAASGLTFQSYAIGWYRQAPGKERELVATISNGSSTYYADSVKGRFTISRDNAKNTVYLQMNSQKPEDTAVYYCAADGYLHAGHWRTYGYYYWGHGTQVTVSS	low polyreactivity
QDQLVESGGGLVQAGGSLRLSCAASGLTIIFNAMGWYRQAPGKERELVADISSGVNTNYADSVKGRFTISRDNAKNTVYLQMNSLKPEDTAVYYCAARLAQSTGYGYWGQGTQVTVSS	low polyreactivity
QDQLVESGGGLVQAGGSLRLSCAASGPIFYPYVMGWYRQAPGKERELVAAISDSTGSTYYADSVKGRFTISRDNAKNTVYLQMNSLKPEDTAVYYWGQGTQVTVSS	low polyreactivity
QDQLVESGGGLVQAGGSLRLSCAASGRIFLYNAMGWYRQAPGKERELVAAIDGGGTTYADSVKGRFTISRDNAKNTVYLQMNSLKPEDTAVYYCAADWYYQYSIYRYGYWGQGTQVTVSS	low polyreactivity

Sequence	polyreactivity (PSR sort gate)
QDQLVESGGGLVQAGGSLRLSCAASGRIFPVYAMGWYRQAPGKERELVATITSRTGRTYYADSVKGRFTISRDNAKITVYLQMNSLKPEDTAVYYCAARGYYSAPGYGYWGQGTQVTVSS	high polyreactivity
QDQLVESGGGLVQAGGSLRLSCAASGRIFVHNAMGWYRQAPGKERELVAAIYQNGGRTYYADSVKGRFTISRDNAMNTVYLQMNSLKPEDTAVYYCAAGQARAGLIGGYWGQGTQVTVSS	high polyreactivity
QDQLVESGGGLVQAGGSLRLSCAASGRILASYAMGWYRQAPGKERELVAAISLSGGSTYYADSVKGRFTISRDNAKNTVYLQMNSLKPEDTAVTYCAAKYPQKTPVNSYGNSFYYWGQGTQVTGSS	low polyreactivity
QDQLVESGGGLVQAGGSLRLSCAASGRILPYYTMGWYRQAPGKERELVAAISKRGTSTYYADSVKGRFTISRDNAKNTVYLQMNSLKPEDTAVYYCAKRGPGVDYDYWGQGTQVTVSS	high polyreactivity
QDQLVESGGGLVQAGGSLRLSCAASGRILRQYAMGWYRQAPGKERELVAAITSGDSTYYADSVKGRFTISRDNAKNTVYLQMNSLKTEDTAVYYCAAYSWLYEGYEYWGQGTQVTVSS	high polyreactivity
QDQLVESGGGLVQAGGSLRLSCAASGRTFAKSAMGWYRQAPGKERELVASISRRGGSTYYADSVKGRFTISRDNAKNTVYLQMNSLKPEDTAVYYCNAVVTVNGYDSWGQGTQVTVSS	high polyreactivity
QDQLVESGGGLVQAGGSLRLSCAASGRTFHRNAMGLYRQAPGKERELVAAITGTGGRTYYADSVKGRFTISRDNAKNTVYLQMNSLKPEDTEVYYCAARPWIKSGYWGQGTQVTVSW	high polyreactivity
QDQLVESGGGLVQAGGSLRLSCAASGRTFPYKAMGWYRQAPGKERELVAAISYAGGRTYYADSVKGRFTISRDTAKNTVYLQMNSLKPEDTAVYYCYALGSGREDDYWGQGTQVTVSS	high polyreactivity
QDQLVESGGGLVQAGGSLRLSCAASGRTFSTYAMGWYRQAHGKERELVARITSSGGSTYFADSVKGRFTISRDNAKNTVYLQMNSLKPEDTAVYYCAADAWSYWGYPYWWGYDYWGQGTQVTVSS	high polyreactivity
QDQLVESGGGLVQAGGSLRLSCAASGRTFTTNDMGWYRQAPGKEWELVAGISWSGGSTFYADSVKGRFTISRDNAKNTVYLQMNSLKPEDTAVYSCATSARSYQSAYGHYTWYDYWGQGTQVTVSS	low polyreactivity
QDQLVESGGGLVQAGGSLRLSCAASGRTFVFYAMGWYRQAPGKERELVAAITSGTSTNYADSVKGRFTISRDNAMNTVYLQMNSLKPEDTAVYYCAAYWTDLTYSIGFGYWGQGTQVTVSS	low polyreactivity
QDQLVESGGGLVQAGGSLRLSCAASGRTFWRYAMGWYRQAPGKERELVAAITSGGGSTYYADSVKGRFTISRDTAKNTVYLQMNSLKPEDTAVSYCNRAGRGRSFKGDYWGQGTQVTVSS	high polyreactivity
QDQLVESGGGLVQAGGSLRLSCAASGRTFWVYAKGWYRQAPGKERELVAGISWDDGSTYYADSVKGRFTISRDNAKNTVYLQMNSLKPEDTAVYYCAADAYFIFYISYEYWGQGTQVTVSS	low polyreactivity
QDQLVESGGGLVQAGGSLRLSCAASGRTFYIYAMGWYRQATGKERELVAAISSYTSTKYADSVKGRFTISRDNAKNTVYLQMICLKPEDTAVYYCASGYPVRYRGYLNWSYYAYDYWGQGTQVTVSS	low polyreactivity
QDQLVESGGGLVQAGGSLRLSCAASGRTFYLYAMGWYRQAPGKERELVARISWGGGRTYYADSVKGRFTISRDNAKNTVYLQMNSLKPEDTAVYYCNAQSPRGFTTTRQVYPLNGYWGQGTQVTVSS	high polyreactivity
QDQLVESGGGLVQAGGSLRLSCAASGRTFYRYAMGWYRQAPGKERELVASITRGTSTNYADSVKGRFTISRDNAKNTVYLQMNSLKPEDTAVYYCNRRIFGGQRMYYWGQGTQVTVSS	high polyreactivity
QDQLVESGGGLVQAGGSLRLSCAASGRTIFRNAMGWYRQAPGKERELVAAITWSGGSTYYADSVKGRFTISRDNAKNTVYLQMNSLKPEDTAVYYCNRKRYGSDYEYWGQGTQVTVSS	low polyreactivity
QDQLVESGGGLVQAGGSLRLSCAASGRTLTRYTMGWYRQAPGKERELVATISRSGGNTHYADSVKGRFTISRDTAKNTVYLQMNSLIPEDTAVYYCNAVRYAIYGYDYWGQGTQVTVSS	high polyreactivity
QDQLVESGGGLVQAGGSLRLSCAASGSIFADYVMGWYRQAPGKERELVAAITRRGRTYYADSVKGRFTISRDNAKNNVYLQMNSLKPEDTAVYYCAKVAYGKIDSWGQGTQVTVSS	low polyreactivity
QDQLVESGGGLVQAGGSLRLSCAASGSIFDRNAMGWYRQAPGKERELVAAITSRGGRTYYADSVKGRFTISRDNAKNTVYLQMNSLKPEDTAVYYCNAVYSQSGYFYRFDYWGQGTQVTVSS	high polyreactivity
QDQLVESGGGLVQAGGSLRLSCAASGSIFDVNAMGWYRQAPGKERELVAAISDSGGSTYYADSVKGRFTISRDNAKNTVYLQMNSLKPEDTAVYYCNADWSWYNYYDFDYWGQGTQVTVSS	low polyreactivity
